Here are results for 5 molecules from article PMC3741180, “A Novel High Throughput Biochemical Assay to Evaluate the HuR Protein-RNA Complex Formation” (PLoS ONE, 2013).

Broadly, the Ki is the equilibrium dissociation constant of an inhibitor or competing ligand from its target. The Kd is a measure of binding affinity in units of concentration.

The target of series [1] is T1, HuR/ELAVL1 (Homo sapiens, UniProt Q15717).
T1 construct: full-length human HuR with C-terminal Myc-His tag (rHuR), purified from HEK293T cells
T1 sequence (Q15717 2-326): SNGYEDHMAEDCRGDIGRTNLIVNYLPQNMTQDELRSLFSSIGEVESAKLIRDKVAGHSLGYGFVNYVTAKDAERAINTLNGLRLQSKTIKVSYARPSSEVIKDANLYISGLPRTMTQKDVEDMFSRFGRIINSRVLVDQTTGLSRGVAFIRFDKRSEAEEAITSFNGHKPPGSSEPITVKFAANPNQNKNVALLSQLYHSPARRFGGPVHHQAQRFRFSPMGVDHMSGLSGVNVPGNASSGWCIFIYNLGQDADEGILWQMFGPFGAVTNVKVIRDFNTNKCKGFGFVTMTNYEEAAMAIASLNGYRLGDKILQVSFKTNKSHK
As to the kind of experiment: AlphaScreen ([…]) and REMSA ([…]) of rHuR-RNA complex formation. Type of series: biochemical. (Alpha assays give light when donor and acceptor beads are brought close together.)

In series [2] the target is T2, rHuR (HuR-Myc-His) (Homo sapiens, UniProt Q15717 1-326). As to the kind of experiment: AlphaScreen competition; versus 50 nM Bi-TNF, 1 nM rHuR; AlphaScreen: 25 mM HEPES pH 7.4, 100 mM NaCl, 0.1% BSA, room temperature; REMSA: 20 mM HEPES pH 7.5, 50 mM KCl, 0.5 ug BSA, 0.25% glycerol, room temperature, 6% native gel 0.5X TBE at 4 C. As to conditions: protein: recombinant; tags: C-terminal c-Myc and His6; single strand.
T2 sequence (Q15717 whole entry): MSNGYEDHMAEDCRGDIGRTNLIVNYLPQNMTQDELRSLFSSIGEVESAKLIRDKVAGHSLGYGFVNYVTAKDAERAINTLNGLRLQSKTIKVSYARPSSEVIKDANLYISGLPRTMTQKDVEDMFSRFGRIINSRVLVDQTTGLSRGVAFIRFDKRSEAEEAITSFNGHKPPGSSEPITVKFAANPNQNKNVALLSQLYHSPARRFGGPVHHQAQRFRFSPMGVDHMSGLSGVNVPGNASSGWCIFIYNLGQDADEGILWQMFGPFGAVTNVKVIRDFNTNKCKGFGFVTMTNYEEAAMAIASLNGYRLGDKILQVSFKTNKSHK

The target of series [3] is T2, rHuR (HuR-Myc-His). Briefly: AlphaScreen saturation binding; AlphaScreen: 25 mM HEPES pH 7.4, 100 mM NaCl, 0.1% BSA, room temperature; REMSA: 20 mM HEPES pH 7.5, 50 mM KCl, 0.5 ug BSA, 0.25% glycerol, room temperature, 6% native gel 0.5X TBE at 4 C. As to conditions: protein: recombinant; tags: C-terminal c-Myc and His6; label: 5'-biotin; single strand.
Series [4] deals with T2, rHuR (HuR-Myc-His). Briefly: AlphaScreen saturation binding; repeat alongside Bi-COX; AlphaScreen: 25 mM HEPES pH 7.4, 100 mM NaCl, 0.1% BSA, room temperature; REMSA: 20 mM HEPES pH 7.5, 50 mM KCl, 0.5 ug BSA, 0.25% glycerol, room temperature, 6% native gel 0.5X TBE at 4 C. As to conditions: protein: recombinant; tags: C-terminal c-Myc and His6; label: 5'-biotin; single strand.

Series [5] deals with T3, rTTP (His-Strep-TTP) (Mus musculus, UniProt P22893 1-319).
T3 sequence: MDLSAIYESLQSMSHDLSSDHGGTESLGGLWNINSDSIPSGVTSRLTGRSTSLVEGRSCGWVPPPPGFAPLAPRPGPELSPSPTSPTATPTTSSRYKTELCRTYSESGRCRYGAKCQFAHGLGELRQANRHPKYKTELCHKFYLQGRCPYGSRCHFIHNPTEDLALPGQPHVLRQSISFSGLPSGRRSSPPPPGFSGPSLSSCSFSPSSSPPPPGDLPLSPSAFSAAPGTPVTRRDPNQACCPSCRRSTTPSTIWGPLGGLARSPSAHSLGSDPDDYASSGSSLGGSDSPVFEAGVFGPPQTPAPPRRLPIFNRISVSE
As to the kind of experiment: AlphaScreen competition; rTTP displacing 1 nM rHuR from 50 nM Bi-TNF; AlphaScreen: 25 mM HEPES pH 7.4, 100 mM NaCl, 0.1% BSA, room temperature; REMSA: 20 mM HEPES pH 7.5, 50 mM KCl, 0.5 ug BSA, 0.25% glycerol, room temperature, 6% native gel 0.5X TBE at 4 C. As to conditions: protein: recombinant; tags: His-Strep; label: 5'-biotin; single strand.

Series [6] addresses T2, rHuR (HuR-Myc-His). As to the kind of experiment: AlphaScreen saturation binding; signal near background, probe 0-100 nM; AlphaScreen: 25 mM HEPES pH 7.4, 100 mM NaCl, 0.1% BSA, room temperature; REMSA: 20 mM HEPES pH 7.5, 50 mM KCl, 0.5 ug BSA, 0.25% glycerol, room temperature, 6% native gel 0.5X TBE at 4 C. As to conditions: protein: recombinant; tags: C-terminal c-Myc and His6; label: 5'-biotin; single strand.

`O=C1c2c(O)ccc(O)c2C(=O)c2c(NCCNCCO)ccc(NCCNCCO)c21` [compound 16, Mitoxantrone]: in series [1], the “AlphaScreen (25 nM) and REMSA (0.5 μM) of rHuR-RNA complex formation” value is “Mitoxantrone revealed to be a compound interfering with rHuR binding to Bi-TNF in both of our in vitro assays”.
AUUAUUUAUUAUUUAUUUAUUAUUUA (ssRNA) [U-TNF]: in series [2], the Ki came to 4.49 ± 1.1 nM.
As for AUUAUUUAUUAUUUAUUUAUUAUUUA (ssRNA) [Bi-TNF], the results for the Kd in series [3] and in series [4] were 2.5 ± 0.6 nM and 2.75 nM, respectively. For the same molecule, the Ki in series [5] turned out to be 0.00176 ± 0.00041 nM.
Turning to UAUUAAUUUAAUUAUUUAAUAAUAUUU (ssRNA) [Bi-COX], the Kd in series [3] turned out to be 4.58 ± 1.2 nM.
For ACCACCCACCACCCACCCACCACCCA (ssRNA) [Bi-TNFneg], the binding result in series [6] was “no binding”.
